Where two headings read alike, the source gives them in different places. Square brackets hold non-standard residues; d marks the D form. Peptide text beside a SMILES is read from it. * marks the point of attachment. Ala(1H-tetrazol-5-yl) = N[C@@H](Cc1nnn[nH]1)C(=O)O; Nle = CCCC[C@H](N)C(=O)O; Ms = CS(=O)(=O)*
What was measured:
[1] = Peptide stability test, phosphate buffer (pH 7.0), 40° C. storage, HPLC remaining rate; assay type: physicochemical; conditions: for remaining rate after correction for water, 40° C., 1 month preservation / remaining rate after correction for water, 40° C., 2 months preservation: 100 μM in phosphate buffer pH 7.0; for stability in aqueous solution (in words), 40° C. storage: phosphate buffer pH 7.0, 1 or 2 months
Protocol: Peptides 1 and 3 to 5 synthesized in Example 2 were weighed and dissolved in phosphate buffer (pH 7.0) to prepare 1.0 mM peptide solutions. The 1.0 mM peptide solutions were then diluted with phosphate buffer to 100 μM. After filtering with Chromatdisk (product of Merck Millipore, Millex-GV, 0.22 μm), each filtrate was dispensed into an LC vial (Waters Deactivated […] prepared peptide solutions were incubated for one month or 2 months in a 40° C. thermostatic bath to obtain stored samples. A simultaneously prepared sample among the peptide solutions that was not stored was used as a standard sample (initial sample). The standard sample and the stored samples were stored at -30° C. until sample analysis. Using the total weight of the aqueous peptide solution and storage vessel as the specimen weight, measurements were recorded as the specimen weights before storage and the specimen weights after storage under different storage conditions. The empty weight of the storage vessel was also measured, and the moisture permeability was determined by the following formula. After stirring the standard sample and the stored samples with a vortex mixer, each peptide solution was transferred to an HPLC vial (Deactivated Qsert vial by Waters Co.). Reverse-phase HPLC (HPLC system: Prominence by Shimadzu Corp.) was conducted under the conditions shown in Table 3 below for analysis of the peptide solutions, and chromatograms were obtained. Guard column: XSelect CSH C18 by Waters Co., 5 μm, 4.6×20 mm Guard Cartridge Detection wavelength: 220 nm Mobile phase A: 0.1% formic acid aqueous solution Mobile phase B: 0.1% acetonitrile formate solution Measuring time: 30 minutes Measuring sample injection rate: 50 μL Flow rate: 1.0 mL/min Sample cooler: 4° C. Column temperature: 40° C. Mobile phase delivery: The mixing ratio of mobile phase A and mobile phase B was varied as shown in Table 3 for linear concentration gradient control. The peak area value for the peptide in the chromatogram was calculated, and the remaining rate (remaining rate before correction for water) was calculated using formula (2). The remaining rate after correction for water was also calculated from the remaining rate before correction for water using formula (3), taking into account the moisture permeability of the vessel. Peptides 10 and 11 synthesized in Example 2 were weighed and dissolved in phosphate buffer (pH 7.0) to prepare 1.0 mM peptide solutions. Each solution was filtered with a Chromatdisk (product of Merck Millipore. Millex-GV, 0.22 μm). Each filtrate was diluted to 100 μM with phosphate buffer (pH 7.0) and dispensed into a tube (Protein LoBind Tube by Eppendorf Co.). The prepared peptide solutions were incubated for one month or 2 months in a 40° C. thermostatic bath to obtain stored samples. A simultaneously prepared sample among the peptide solutions that was not stored was used as a standard sample (initial sample). The standard sample and the stored samples were stored at -30° C. until sample analysis. The remaining rate after correction for water for each peptide among the stored samples was measured in the same manner as Example 4, and the results are shown in Table 8.

VPAC1 receptor [2] = molecular target: T1, VPAC1 receptor (UniProt P32241 31-457, limits assumed); assay: cell-based or functional assay
T1 sequence (looked up): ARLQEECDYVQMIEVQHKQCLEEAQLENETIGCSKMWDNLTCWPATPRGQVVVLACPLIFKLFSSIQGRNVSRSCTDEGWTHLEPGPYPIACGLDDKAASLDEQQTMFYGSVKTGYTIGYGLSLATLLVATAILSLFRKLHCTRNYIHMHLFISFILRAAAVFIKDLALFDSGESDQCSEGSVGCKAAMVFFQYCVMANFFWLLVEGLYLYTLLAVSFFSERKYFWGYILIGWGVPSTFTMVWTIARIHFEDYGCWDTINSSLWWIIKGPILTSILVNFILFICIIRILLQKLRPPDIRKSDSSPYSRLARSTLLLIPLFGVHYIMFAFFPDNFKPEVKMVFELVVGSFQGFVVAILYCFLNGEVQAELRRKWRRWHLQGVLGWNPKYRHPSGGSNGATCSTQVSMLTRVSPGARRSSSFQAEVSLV

PAC1 receptor [3] = molecular target: T2, PAC1 receptor (UniProt P41586 21-468, limits assumed); assay: cell-based or functional assay
T2 sequence (looked up): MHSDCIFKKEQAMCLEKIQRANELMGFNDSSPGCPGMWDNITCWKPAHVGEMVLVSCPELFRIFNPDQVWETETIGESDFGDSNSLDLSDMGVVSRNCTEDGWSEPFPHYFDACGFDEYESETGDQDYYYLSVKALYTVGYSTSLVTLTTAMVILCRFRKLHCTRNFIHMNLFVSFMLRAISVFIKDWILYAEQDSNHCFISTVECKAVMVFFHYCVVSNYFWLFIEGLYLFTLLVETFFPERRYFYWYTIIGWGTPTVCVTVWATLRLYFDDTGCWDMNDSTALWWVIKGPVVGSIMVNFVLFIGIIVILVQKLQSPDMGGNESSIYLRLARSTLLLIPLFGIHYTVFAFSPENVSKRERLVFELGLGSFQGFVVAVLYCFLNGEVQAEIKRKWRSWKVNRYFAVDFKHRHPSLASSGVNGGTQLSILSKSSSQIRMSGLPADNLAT

VPAC1 receptor [4] = molecular target: T1, VPAC1 receptor; assay: cell-based or functional assay; remark: listed apart in the source
PAC1 receptor [5] = molecular target: T2, PAC1 receptor; assay: cell-based or functional assay; remark: listed apart in the source
[6] = Table 8, measured as in Example 4

CC[C@H](C)[C@H](NC(=O)CNC(=O)[C@H](Cc1nnn[nH]1)NC(=O)[C@H](CO)NC(=O)[C@@H](N)Cc1c[nH]cn1)C(=O)N[C@@H](Cc1ccccc1)C(=O)N[C@H](C(=O)N[C@@H](Cc1nnn[nH]1)C(=O)N[C@@H](CO)C(=O)N[C@@H](Cc1ccc(O)cc1)C(=O)N[C@@H](CO)C(=O)N[C@@H](CCCNC(=N)N)C(=O)N[C@@H](Cc1ccc(O)cc1)C(=O)N[C@@H](CCCNC(=N)N)C(=O)N[C@@H](CCCCN)C(=O)N[C@@H](CCC(N)=O)C(=O)N[C@@H](CCSC)C(=O)N[C@@H](C)C(=O)N[C@H](C(=O)N[C@@H](CCCCN)C(=O)N[C@@H](CCCCN)C(=O)N[C@@H](Cc1ccc(O)cc1)C(=O)N[C@@H](CC(C)C)C(=O)N[C@@H](C)C(=O)N[C@@H](C)C(=O)N[C@H](C(=O)N[C@@H](CC(C)C)C(N)=O)C(C)C)C(C)C)[C@@H](C)O [Peptide 5] (H-HS[Ala(1H-tetrazol-5-yl)]GIFT[Ala(1H-tetrazol-5-yl)]SYSRYRKQMAVKKYLAAVL-NH2)
remaining rate after correction for water, 40° C., 1 month preservation ([1]; Table 4, HPLC conditions 1): 94.7%
remaining rate after correction for water, 40° C., 2 months preservation ([1]; Table 4, HPLC conditions 1): 85.6%
stability in aqueous solution (in words), 40° C. storage [1]: further increased stability over peptide 3 and peptide 4

CCCC[C@H](NC(=O)[C@H](CCC(N)=O)NC(=O)[C@H](CCCCN)NC(=O)[C@H](CCCNC(=N)N)NC(=O)[C@H](Cc1ccc(O)cc1)NC(=O)[C@H](CCCNC(=N)N)NC(=O)[C@H](CO)NC(=O)[C@H](Cc1ccc(O)cc1)NC(=O)[C@H](CO)NC(=O)[C@H](Cc1nnn[nH]1)NC(=O)[C@@H](NC(=O)[C@H](Cc1ccccc1)NC(=O)[C@@H](NC(=O)CNC(=O)[C@H](Cc1nnn[nH]1)NC(=O)[C@H](CO)NC(=O)[C@H](Cc1c[nH]cn1)NS(C)(=O)=O)[C@@H](C)CC)[C@@H](C)O)C(=O)N[C@@H](C)C(=O)N[C@H](C(=O)N[C@@H](CCCCN)C(=O)N[C@@H](CCCCN)C(=O)N[C@@H](Cc1ccc(O)cc1)C(=O)N[C@@H](CC(C)C)C(=O)N[C@@H](C)C(=O)N[C@@H](C)C(=O)N[C@H](C(=O)N[C@@H](CC(C)C)C(N)=O)C(C)C)C(C)C [Peptide 11] (Ms-HS[Ala(1H-tetrazol-5-yl)]GIFT[Ala(1H-tetrazol-5-yl)]SYSRYRKQ[Nle]AVKKYLAAVL-NH2)
remaining rate after correction for water, 40° C., 1 month preservation [1, 6]: 94.2%
remaining rate after correction for water, 40° C., 2 months preservation [1, 6]: 88.8%
stability in aqueous solution (in words), 40° C. storage [1]: stabilized to the same degree

B1: Peptide 28 (peptide)
peptide: Ac-HS[Ala(1H-tetrazol-5-yl)]GIFT[Ala(1H-tetrazol-5-yl)]SYSRYRKAAAVKKYLAAVL-NH2
SMILES: CC[C@H](C)[C@H](NC(=O)CNC(=O)[C@H](Cc1nnn[nH]1)NC(=O)[C@H](CO)NC(=O)[C@H](Cc1c[nH]cn1)NC(C)=O)C(=O)N[C@@H](Cc1ccccc1)C(=O)N[C@H](C(=O)N[C@@H](Cc1nnn[nH]1)C(=O)N[C@@H](CO)C(=O)N[C@@H](Cc1ccc(O)cc1)C(=O)N[C@@H](CO)C(=O)N[C@@H](CCCNC(=N)N)C(=O)N[C@@H](Cc1ccc(O)cc1)C(=O)N[C@@H](CCCNC(=N)N)C(=O)N[C@@H](CCCCN)C(=O)N[C@@H](C)C(=O)N[C@@H](C)C(=O)N[C@@H](C)C(=O)N[C@H](C(=O)N[C@@H](CCCCN)C(=O)N[C@@H](CCCCN)C(=O)N[C@@H](Cc1ccc(O)cc1)C(=O)N[C@@H](CC(C)C)C(=O)N[C@@H](C)C(=O)N[C@@H](C)C(=O)N[C@H](C(=O)N[C@@H](CC(C)C)C(N)=O)C(C)C)C(C)C)[C@@H](C)O
EC50 (VPAC1R), cAMP inducing effect (VPAC1 receptor [2]): 0.029 nM
EC50 (PAC1R), cAMP inducing effect (PAC1 receptor [3]): 0.084 nM

B2: Peptide 29 (peptide)
peptide: HSXGIFTXAYSRYRKQLAVKKYLAAVL
modifications: N-terminal mesyl (Ms-); Tz (aspartic acid with carboxyl group replaced by tetrazole) at positions 3 and 8; C-terminal amide (NH2)
EC50 (VPAC1R), cAMP inducing effect (VPAC1 receptor [4]): 0.09 nM
EC50 (PAC1R), cAMP inducing effect (PAC1 receptor [5]): 0.025 nM

B3: Peptide 30 (peptide)
peptide: HSXAIFTXSYSRYRKQLAVKKYLAAVL
modifications: N-terminal mesyl (Ms-); Tz (aspartic acid with carboxyl group replaced by tetrazole) at positions 3 and 8; C-terminal amide (NH2)
EC50 (VPAC1R), cAMP inducing effect (VPAC1 receptor [4]): 0.057 nM
EC50 (PAC1R), cAMP inducing effect (PAC1 receptor [5]): 0.032 nM

B4: Peptide 31 (peptide)
peptide: Ms-HS[Ala(1H-tetrazol-5-yl)]AIFT[Ala(1H-tetrazol-5-yl)]SYSRYRKQAAVKKYLAAVL-NH2
SMILES: CC[C@H](C)[C@H](NC(=O)[C@H](C)NC(=O)[C@H](Cc1nnn[nH]1)NC(=O)[C@H](CO)NC(=O)[C@H](Cc1c[nH]cn1)NS(C)(=O)=O)C(=O)N[C@@H](Cc1ccccc1)C(=O)N[C@H](C(=O)N[C@@H](Cc1nnn[nH]1)C(=O)N[C@@H](CO)C(=O)N[C@@H](Cc1ccc(O)cc1)C(=O)N[C@@H](CO)C(=O)N[C@@H](CCCNC(=N)N)C(=O)N[C@@H](Cc1ccc(O)cc1)C(=O)N[C@@H](CCCNC(=N)N)C(=O)N[C@@H](CCCCN)C(=O)N[C@@H](CCC(N)=O)C(=O)N[C@@H](C)C(=O)N[C@@H](C)C(=O)N[C@H](C(=O)N[C@@H](CCCCN)C(=O)N[C@@H](CCCCN)C(=O)N[C@@H](Cc1ccc(O)cc1)C(=O)N[C@@H](CC(C)C)C(=O)N[C@@H](C)C(=O)N[C@@H](C)C(=O)N[C@H](C(=O)N[C@@H](CC(C)C)C(N)=O)C(C)C)C(C)C)[C@@H](C)O
EC50 (VPAC1R), cAMP inducing effect (VPAC1 receptor [4]): 0.035 nM
EC50 (PAC1R), cAMP inducing effect (PAC1 receptor [5]): 0.034 nM

B5: Peptide 32 (peptide)
peptide: Ac-HS[Ala(1H-tetrazol-5-yl)]AIFT[Ala(1H-tetrazol-5-yl)]SYSRYRKQAAVKKYLAAVL-NH2
SMILES: CC[C@H](C)[C@H](NC(=O)[C@H](C)NC(=O)[C@H](Cc1nnn[nH]1)NC(=O)[C@H](CO)NC(=O)[C@H](Cc1c[nH]cn1)NC(C)=O)C(=O)N[C@@H](Cc1ccccc1)C(=O)N[C@H](C(=O)N[C@@H](Cc1nnn[nH]1)C(=O)N[C@@H](CO)C(=O)N[C@@H](Cc1ccc(O)cc1)C(=O)N[C@@H](CO)C(=O)N[C@@H](CCCNC(=N)N)C(=O)N[C@@H](Cc1ccc(O)cc1)C(=O)N[C@@H](CCCNC(=N)N)C(=O)N[C@@H](CCCCN)C(=O)N[C@@H](CCC(N)=O)C(=O)N[C@@H](C)C(=O)N[C@@H](C)C(=O)N[C@H](C(=O)N[C@@H](CCCCN)C(=O)N[C@@H](CCCCN)C(=O)N[C@@H](Cc1ccc(O)cc1)C(=O)N[C@@H](CC(C)C)C(=O)N[C@@H](C)C(=O)N[C@@H](C)C(=O)N[C@H](C(=O)N[C@@H](CC(C)C)C(N)=O)C(C)C)C(C)C)[C@@H](C)O
EC50 (VPAC1R), cAMP inducing effect (VPAC1 receptor [4]): 0.076 nM
EC50 (PAC1R), cAMP inducing effect (PAC1 receptor [5]): 0.148 nM
